Reference: PMC6920769, “Knockout of Arabidopsis Serotonin N-Acetyltransferase-2 Reduces Melatonin Levels and Delays Flowering” (Biomolecules, 2019)

Legend:
AtSNAT1 = molecular target: T1, AtSNAT1 (Arabidopsis thaliana, UniProt Q7X9V3); experiment: HPLC of N-acetylserotonin formed; format: biochemical; details: serotonin 0.5 mM
T1 construct: gene NSI

[1] = substrate: COc1ccc2[nH]cc(CCN)c2c1; experiment: HPLC of melatonin formed, Lineweaver-Burk; format: biochemical, Arabidopsis thaliana; details: acetyl-CoA 0.5 mM, 100 mM potassium phosphate pH 7.8, 45 °C
[2] = substrate: NCCc1c[nH]c2ccc(O)cc12; experiment: HPLC of N-acetylserotonin formed, Lineweaver-Burk; format: biochemical, Arabidopsis thaliana; details: acetyl-CoA 0.5 mM, 100 mM potassium phosphate pH 7.8, 45 °C, printed as Km for NAS (synthesis)

T1 sequence (Q7X9V3 59-258): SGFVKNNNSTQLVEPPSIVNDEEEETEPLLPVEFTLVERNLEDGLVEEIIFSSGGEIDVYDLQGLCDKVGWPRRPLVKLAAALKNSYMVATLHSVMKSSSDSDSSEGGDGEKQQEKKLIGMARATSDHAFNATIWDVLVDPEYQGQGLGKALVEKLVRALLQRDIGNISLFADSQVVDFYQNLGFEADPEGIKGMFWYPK

Molecule: NCCc1c[nH]c2ccc(O)cc12 [serotonin]
- HPLC of N-acetylserotonin formed (AtSNAT1): Melatonin-mediated inhibition of NAS synthesis by recombinant AtSNAT1

B1: AtSNAT2 (Arabidopsis thaliana) (protein)
chain: MFLGGTISTPPASLRLRSTLNPQNAVTQSSSQATFPAAMQRKPPSYSISDEDLESRGFLLRRTTEGLNLDQLNSVFAAVGFPRRDTAKIEVALQHTDALLWVEYEKTRRPVAFARATGDGVFNAIIWDVVVDPSFQSCGLGKAVMERLIEDLQVKGICNIALYSEPRVLGFYRPLGFVSDPDGIKGMVFIRKQRNKK
notes: kinetics text says recombinant AtSNAT2 (not the truncated form)
- Km [1]: 630 µM
- Km [2]: 232 µM
